Experimental data reported in patent US20190127480A1 (Regeneron, published 2019).
Changes are numbered by the printed parent chain.

Experiments:
[1] = molecular target: T1, Soluble heterodimeric CD3 protein (hCD3-epsilon/hCD3-delta) with either a human Fc tag (hFcΔAdp/hFc) or a … (human, UniProt P07766 23-126; P04234 22-105); assay: SPR Biacore 25C antigen-capture
T1 construct: also called hCD3ε/δ; not shown: Fc tag: human (hFcΔAdp/hFc)
Method: (§1) Measurements were conducted on a T200 Biacore™ instrument.
In the antigen-capture format, heterodimeric CD3 protein was captured using a rabbit anti-mouse Fc or mouse anti-human Fc and the respective antibodies were injected over the captured antigen.
(§2) Kinetic association (kₐ) and dissociation (kd) rate constants were determined by processing and fitting the data to a 1:1 binding model using Scrubber 2.0 curve fitting software. Binding dissociation equilibrium constants (KD) and dissociative half-lives (t₁₁₂) were calculated from the kinetic rate constants as: KD (M)=kd/kₐ; and t_{1/2} (min)=(ln 2/(60*kd). NT=not tested; NB=no binding observed.

[2] = molecular target: T1, Soluble heterodimeric CD3 protein …; assay: SPR Biacore 25C antibody-capture
Method: as §1
Soluble heterodimeric CD3 protein (hCD3-epsilon/hCD3-delta; SEQ ID NOs:1652/1653) with either a human Fc tag (hFcΔAdp/hFc; SEQ ID NOs:1683/1684) or a mouse Fc tag (mFcΔAdp/mFc; SEQ ID NOs:1685/1686) was injected over the antibody captured surface and the binding response was recorded. Heterodimeric CD3 protein was purified using the method described in Davis et al. (US2010/0331527).
as §2

T1 sequence (P07766 23-126 limits assumed, stated change not applied, chain 1 of 2): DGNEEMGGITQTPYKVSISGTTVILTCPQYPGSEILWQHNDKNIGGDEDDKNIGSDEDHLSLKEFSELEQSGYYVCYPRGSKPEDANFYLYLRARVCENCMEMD
T1 sequence (P04234 22-105 limits assumed, stated change not applied, chain 2 of 2): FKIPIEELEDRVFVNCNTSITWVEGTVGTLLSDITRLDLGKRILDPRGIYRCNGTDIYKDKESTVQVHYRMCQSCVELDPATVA

B1: H1H5771P (antibody, human IgG1, V domains shown)
VH: EVQLVESGGGLVQPGRSLRLSCAASGFSFDNYAMHWVRQAPGQGLEWVSGISWNSGSRDYADSVKGRFTISRDNARNSLFLQMNSLSNEDTAMYYCAKDKSGYGSYFYGMDVWGQGTTVTVSS
VL: EIVLTQSPGTLSLSPGDRATLSCRASQSIRNIYLAWYQQKPGQAPRLLIHGASTRATGIPDRFSGSGSGTDFTLTISRLEPEDFAVYYCQQRVSLPYTFGQGTKLEIK
notes: H1H: human IgG1 Fc; divalent
Kd [1]: 0.371 nM | T½ [1]: 34 min | koff [1]: 0.000342 s⁻¹ | kon [1]: 923000 M⁻¹ s⁻¹ | Kd [2]: 20.9 nM | T½ [2]: 18 min | koff [2]: 0.000626 s⁻¹ | kon [2]: 30000 M⁻¹ s⁻¹

B2: H1H5781P (antibody, human IgG1, V domains shown)
VH: EVQLVESGGGLVQPGRSLRLSCAASGFTFDDFTMHWVRQAPGKGLEWVSDISWNSGSIDYADSVKGRFTISRDNARNSLFLQMSSLRTEDTASYYCIKDKSGYGSYNYGLDVWGQGTTVTVSS
VL: B1 VL with I29V, R30S, N31S, V86L, Q90H, L95S
notes: H1H: human IgG1 Fc; divalent
Kd [1]: 1.92 nM | T½ [1]: 43 min | koff [1]: 0.000268 s⁻¹ | kon [1]: 140000 M⁻¹ s⁻¹ | Kd [2]: 57.7 nM | T½ [2]: 23 min | koff [2]: 0.000497 s⁻¹ | kon [2]: 8610 M⁻¹ s⁻¹

B3: H1H5772S (antibody, V domains shown)
VH: B1 VH with E1Q, N31D, S55G, S87F, N88T, M93L
VL: B1 VL with T10I, L95S
notes: H1H: human IgG1 Fc; divalent; also called H1H5772P
Kd [1]: 1.67 nM | T½ [1]: 13 min | koff [1]: 0.000869 s⁻¹ | kon [1]: 519000 M⁻¹ s⁻¹ | Kd [2]: 99.6 nM | T½ [2]: 7 min | koff [2]: 0.00155 s⁻¹ | kon [2]: 15600 M⁻¹ s⁻¹

B4: H1H5780P (antibody, human IgG1, V domains shown)
VH: EVQLVESGGGLVQPGRSLRLSCAASGFTFDDYAMHWVRQAPGKGLEWVSGISWNGGSKDYADSVKGRFTISRDNTRNSLSLQMNSLRIEDTALYYCAKDKSGYGSFYYGLDVWGQGTTVTVSS
VL: B1 VL with N31S, L95S
notes: H1H: human IgG1 Fc; divalent
Kd [1]: 0.358 nM | T½ [1]: 68 min | koff [1]: 0.000171 s⁻¹ | kon [1]: 478000 M⁻¹ s⁻¹ | Kd [2]: 30.4 nM | T½ [2]: 29 min | koff [2]: 0.000399 s⁻¹ | kon [2]: 13100 M⁻¹ s⁻¹

B5: H1H5778P (antibody, human IgG1, V domains shown)
VH: EVQLVESGGGLVQPGRSLRLSCVASGFTFADFTMHWVRQAPGKGLEWVSGISWNSNSIDYADSVKGRFTISRDNAKKSLFLQMSSLRAEDTALYYCVKDRSGYSRFYYGMDVWGQGTTVTVSS
VL: EIVMTQSPATLSVSPGERAILSCRASQNINSNLAWYQQKPGQAPRLLIYGASTRATGVPARFSGSGSGTEFTLTIRSLQSEDFAVYYCQQYYNWPITFGHGTRLEIK
notes: H1H: human IgG1 Fc; divalent
Kd [1]: 0.0856 nM | T½ [1]: 338 min | koff [1]: 3.42e-05 s⁻¹ | kon [1]: 399000 M⁻¹ s⁻¹ | Kd [2]: 27.8 nM | T½ [2]: 75 min | koff [2]: 0.000154 s⁻¹ | kon [2]: 5520 M⁻¹ s⁻¹

B6: H1H5788P (antibody, V domains shown)
VH: EVQLVESGGGLVQPGRSLRLSCAASGFTFDDYTMHWVRQAPGKGLEWVSGISWNSGSIGYADSVKGRFTISRDNAKNSLYLQMNSLRAEDTALFYCAKDQSGYGHYYYGMDVWGQGTTVTVSS
VL: EIVMTQSPATLSVSPGERATLSCRASQSVSSNLAWYQQKPGQAPRLLIYGASTRATDIPARFSGSGSGTEFTLTISSLQSEDFAVYHCQQYNNWPLTFGGGTKVEIK
notes: H1H: human IgG1 Fc; divalent
Kd [1]: 2.33 nM | T½ [1]: 70 min | koff [1]: 0.000164 s⁻¹ | kon [1]: 70600 M⁻¹ s⁻¹ | Kd [2]: 101 nM | T½ [2]: 40 min | koff [2]: 0.000291 s⁻¹ | kon [2]: 2880 M⁻¹ s⁻¹

B7: H1H2712N (antibody, human IgG1, V domains shown)
VH: B6 VH with R16G, S25T, Y32F, A61V, F94Y, Q100N, H105Y
VL: B6 VL with Q27H, S31R, L33S, D57G, V85I, H87Y
notes: H1H: human IgG1 Fc; divalent
Kd [1]: 0.971 nM | T½ [1]: 133 min | koff [1]: 8.68e-05 s⁻¹ | kon [1]: 89300 M⁻¹ s⁻¹ | Kd [2]: 88.2 nM | T½ [2]: 43 min | koff [2]: 0.00027 s⁻¹ | kon [2]: 3060 M⁻¹ s⁻¹

B8: H1H5763P (antibody, human IgG1, V domains shown)
VH: QVQLVESGGGVVQPGRSLRLSCAASGLTFSSYGMHWVRQAPGKGLEWVAVISYDGSNKYYTDSVKGRFTISRDNSKNTLYLQMNSLRAEDTAVYYCAKGAMVRGVPYNYYYGMDVWGQGTTVTVSS
VL: DIQMTQSPSSLSASVGDRVTITCRASQGIRNDLGWYQQKPGKAPKRLIYAASSLQSGVPSRFSGSGSGTEFTLTISSLQPEDFATYYCLQHNSYPYTFGQGTKLEIK
notes: H1H: human IgG1 Fc; divalent
Kd [1]: 92.4 nM | T½ [1]: 1 min | koff [1]: 0.017 s⁻¹ | kon [1]: 184000 M⁻¹ s⁻¹ | Kd [2]: 2920 nM | T½ [2]: 0 min | koff [2]: 0.054 s⁻¹ | kon [2]: 18500 M⁻¹ s⁻¹

B9: H1H5764P (antibody, human IgG1, V domains shown)
VH: B8 VH with L27F, S30R, Y32F, S56N, N57Y, T61A, Y94H, Y109F
VL: B8 VL with G28V, V58I
notes: H1H: human IgG1 Fc; divalent
Kd [1]: 21 nM | T½ [1]: 2 min | koff [1]: 0.00736 s⁻¹ | kon [1]: 350000 M⁻¹ s⁻¹ | Kd [2]: 3820 nM | T½ [2]: 1 min | koff [2]: 0.0159 s⁻¹ | kon [2]: 4160 M⁻¹ s⁻¹

B10: H1H5755B (antibody, human IgG1, V domains shown)
VH: EVQLVESGGGVVQPGRSLRLSCAASGFTFSNYGMHWVRQAPGKGLEWVTVILHDGSYKYYADSVKGRFTISRDNSKNTLHLQMNSLRTEDTAVYYCAKGPMFRGVPYNHYYGMDVWGQGTTVTVSS
VL: DIQMTQSPSSLSASVGDRVTITCRASQGIRNDLGWYQQKPGKAPKRLIYAASSLQSGVSSRFSGSGSGTEFTLTISSLQPEDFATYYCLQHNSYPYTFGQGTKVEIKR
notes: H1H: human IgG1 Fc; divalent
Kd [1]: 0.936 nM | T½ [1]: 57 min | koff [1]: 0.000201 s⁻¹ | kon [1]: 215000 M⁻¹ s⁻¹ | Kd [2]: 57.5 nM | T½ [2]: 24 min | koff [2]: 0.000472 s⁻¹ | kon [2]: 8210 M⁻¹ s⁻¹

B11: H1H5757B (antibody, human IgG1, V domains shown)
VH: B10 VH with N31S, Y57N, K58R, Y60S, H80Y, S85I, T88V, A97T, P100A, F102V
VL: B10 VL with S53I, S59P, V104L
notes: H1H: human IgG1 Fc; divalent
Kd [1]: 1.64 nM | T½ [1]: 39 min | koff [1]: 0.000295 s⁻¹ | kon [1]: 180000 M⁻¹ s⁻¹ | Kd [2]: 118 nM | T½ [2]: 15 min | koff [2]: 0.000785 s⁻¹ | kon [2]: 6630 M⁻¹ s⁻¹

B12: H1H5758B (antibody, human IgG1, V domains shown)
VH: B10 VH with N31S, Y57N, K58R, H80Y, S85I, T88A, A97T, P100A, F102V
VL: B10 VL with Q3V, S53N, S59P, V104L
notes: H1H: human IgG1 Fc; divalent
Kd [1]: 3.97 nM | T½ [1]: 21 min | koff [1]: 0.000562 s⁻¹ | kon [1]: 142000 M⁻¹ s⁻¹ | Kd [2]: 233 nM | T½ [2]: 10 min | koff [2]: 0.00117 s⁻¹ | kon [2]: 5020 M⁻¹ s⁻¹

B13: H1H5756B (antibody, human IgG1, V domains shown)
VH: EVQLVESGGGVVQPGRSLRLSCTASGFPFSRYGMHWVRQAPGKGLEWVTFIWYDGSNKYYADSAKGRFTITRDNSKNTVYLQMDSLRADDTAVYYCVRDQAALYYFDSWGQGTLVTVSS
VL: DIQMTQSPSSVSASVGDRVTITCRASQGISRWLAWYQQKPGKAPKLLISAASSLQSGVPSRFSGSGSGTDFTLTISGLQPEDFATYYCQKANSFPFTFGPGTKLEIKR
notes: H1H: human IgG1 Fc; divalent
Kd [1]: 0.767 nM | T½ [1]: 105 min | koff [1]: 0.000111 s⁻¹ | kon [1]: 144000 M⁻¹ s⁻¹ | Kd [2]: 32.6 nM | T½ [2]: 43 min | koff [2]: 0.000266 s⁻¹ | kon [2]: 8150 M⁻¹ s⁻¹
